# In patent US20190382486A1 (Pfizer, published 2019):
# Residue numbers refer to the chain shown, from its start.
# B1: GUCY2C-1608 (GUCY2c-2B5v6) bispecific antibody (bispecific antibody)
# chain 1: DIQLTQSPSSLSASVGDRVTITCRASESVDYYGSSLLQWYQQKPGKAPKLLIYAASKLASGVPSRFSGSGSGTDFTLTISSLQPEDFATYYCQQTRKAYTFGQGTKLEIKGGGSGGGGEVQLVESGGGLVQPGGSLRLSCAASGFTFSDYYMTWVRQAPGKGLEWVAFIRNQARGYTSDHNPSVKGRFTISRDNAKNSLYLQMNSLRAEDTAVYYCARDRPSYYVLDYWGQGTTVTVSSGCPPCPAPEAAGAPSVFLFPPKPKDTLMISRTPEVTCVVVDVSHEDPEVKFNWYVDGVEVHNAKTKPREEQYNSTYRVVSVLTVLHQDWLNGKEYKCKVSNKALPAPIEKTISKAKGQPREPQVCTLPPSREEMTKNQVSLWCLVKGFYPSDIAVEWESNGQPENNYKTTPPVLDSDGSFFLYSKLTVDKSRWQQGNVFSCSVMHEALHNHYTQKSLSLSPG
# chain 2: DIQMTQSPSSLSASVGDRVTITCTSSQSLFNVRSQKNYLAWYQQKPGKAPKLLIYWASTRESGVPSRFSGSGSGTDFTLTISSLQPEDFATYYCKQSYDLFTFGGGTKVEIKGGGGSGGGGEVQLVESGGGLVQPGGSLRLSCAASGFTFSSYWMHWVRQAPGKGLEWIGEIKPSNELTNVHEKFKDRFTISVDKAKNSAYLQMNSLRAEDTAVYYCTRTITTTEGYWFFDVWGQGTLVTVSSGCPPCPAPEAAGAPSVFLFPPKPKDTLMISRTPEVTCVVVDVSHEDPEVKFNWYVDGVEVHNAKTKPREEQYNSTYRVVSVLTVLHQDWLNGKEYKCKVSNKALPAPIEKTISKAKGQPREPQVYTLPPCREEMTKNQVSLSCAVKGFYPSDIAVEWESNGQPENNYKTTPPVLDSDGSFFLVSKLTVDKSRWQQGNVFSCSVMHEALHNHYTQKSLSLSPG
# notes: Bispecific diabody-Fc
# B2: GUCY2c-2B5 bispecific antibody (bispecific antibody, human IgG1)
# chain 1: B1 chain 1 with S34T, L37M, A47P, K57N, L58V, A59E, A98V, Q172R
# chain 2: DIQMTQSPSSLSASVGDRVTITCTSSQSLFNVRSRKNYLAWYQQKPGKAPKLLIYWASTRESGVPSRFSGSGSGTDFTLTISSLQPEDFATYYCKQSYDLFTFGGGTKVEIKGGGSGGGGEVQLVESGGGLVQPGGSLRLSCAASGYTFTSYWMHWVRQAPGKGLEWIGEIKPSNGLTNYIEKFKNRFTISVDKAKNSAYLQMNSLRAEDTAVYYCTRTITTTEGYWFFDVWGQGTLVTVSSGCPPCPAPEAAGAPSVFLFPPKPKDTLMISRTPEVTCVVVDVSHEDPEVKFNWYVDGVEVHNAKTKPREEQYNSTYRVVSVLTVLHQDWLNGKEYKCKVSNKALPAPIEKTISKAKGQPREPQVYTLPPCREEMTKNQVSLSCAVKGFYPSDIAVEWESNGQPENNYKTTPPVLDSDGSFFLVSKLTVDKSRWQQGNVFSCSVMHEALHNHYTQKSLSLSPG
# notes: Bispecific diabody-Fc (knob-in-hole, effector null human IgG1 Fc); also called GUCY2c-0250
# B3: 2B5-0006 (2B5v6) (antibody, V domains shown)
# VH: EVQLVESGGGLVQPGGSLRLSCAASGFTFSDYYMTWVRQAPGKGLEWVAFIRNQARGYTSDHNPSVKGRFTISRDNAKNSLYLQMNSLRAEDTAVYYCARDRPSYYVLDYWGQGTTVTVSS
# VL: DIQMTQSPSSLSASVGDRVTITCTSSQSLFNVRSQKNYLAWYQQKPGKAPKLLIYWASTRESGVPSRFSGSGSGTDFTLTISSLQPEDFATYYCKQSYDLFTFGGGTKVEIK
# notes: also called h2B5v6; parental 2B5v6
# How the values were obtained:
# [1] = molecular target: T1, human CD3 epsilon subunit (CD3e), as cell surface CD3 on Jurkat cells and on naive human T cells (human, UniProt P07766 23-207); assay: cell-based or functional assay
# [2] = molecular target: T2, CD3ed (CD3 epsilon/delta fusion protein) (human); assay: SPR, recombinant human CD3
# T2 construct: Expressed in HEK293 and purified on His60 resin and by SEC; also called soluble human CD3ed antigen; hCD3ed
# T2 chain: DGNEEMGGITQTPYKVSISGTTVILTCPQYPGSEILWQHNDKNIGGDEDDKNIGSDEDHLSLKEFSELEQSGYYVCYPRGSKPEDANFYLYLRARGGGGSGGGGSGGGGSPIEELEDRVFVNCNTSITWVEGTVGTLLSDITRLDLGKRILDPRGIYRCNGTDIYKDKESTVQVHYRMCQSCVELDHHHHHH
# [3] = molecular target: T1, human CD3 epsilon subunit (CD3e), as …; assay: flow cytometry, cell surface binding to human CD3 on naive human T cells
# Text: Purified CD3 bispecific antibodies were titrated for cell surface binding to human CD3 on naïve human T cells purified from fresh human peripheral blood mononuclear cells (PBMCs), using the standard flow cytometry methods known in the art using BD LSRII Fortessa analyzer.
# [4] = molecular target: T1, human CD3 epsilon subunit (CD3e), as …; assay: flow cytometry titration on naive human T cells (PE-A Geo Mean against Ab in nM); Kd printed beside the legend
# [5] = molecular target: T1, human CD3 epsilon subunit (CD3e), as …; assay: FACS on Jurkat cells expressing CD3
binder,measurement,setting,value
B1,In vitro Cytotoxicity,[1],0.772 nM
same,Kd,[2],128 nM
same,EC50,[3],35.4 nM
B2,Kd,[4],13.2 nM
B3,EC50,[5],9.8 nM
